Results: the Human Domainome abundance scans (Beltran et al. 2025)
± gives the uncertainty stated by the source.

B1: Chromodomain-helicase-DNA-binding protein 4, residues 623 to 675; numbered along this chain, Q14839 (parent)
chain: MIHRILNHSVDKKGHVHYLIKWRDLPYDQASWESEDVEIQDYDLFKQSYWNHR

Variants of: B1
Assay: abundance fitness (aPCA) (normalised: wild type 0, dead -1); higher = more abundant; growth selection in yeast, the domain comes from the species named
Settings: Homo sapiens

Variant	abundance fitness
S9P	-0.766 ± 0.15
S9M	-0.105 ± 0.12
S9R	0.156 ± 0.076
S9D	-0.341 ± 0.14
S9G	-0.553 ± 0.098
S9C	-0.062 ± 0.11
S9I	-0.021 ± 0.11
S9H	-0.066 ± 0.11
S9W	-0.198 ± 0.1
S9Y	-0.177 ± 0.11
S9T	-0.068 ± 0.096
S9A	-0.398 ± 0.16
S9N	-0.484 ± 0.14
S9V	-0.407 ± 0.11
S9L	-0.158 ± 0.092
S9Q	-0.095 ± 0.12
S9E	-0.112 ± 0.14
S9F	-0.127 ± 0.1
S9K	0.139 ± 0.095
R4S	-0.117 ± 0.087
R4V	-0.371 ± 0.11
R4M	-0.136 ± 0.12
R4G	-0.481 ± 0.1
R4D	-0.479 ± 0.17

Variant	abundance fitness
R4W	-0.263 ± 0.12
R4E	0.058 ± 0.14
R4K	0.145 ± 0.11
R4H	-0.108 ± 0.14
R4Y	-0.102 ± 0.15
R4Q	-0.233 ± 0.16
R4C	-0.08 ± 0.11
R4T	-0.047 ± 0.1
R4A	-0.535 ± 0.15
R4L	-0.221 ± 0.09
R4P	-0.788 ± 0.14
R4N	-0.331 ± 0.15
I5R	-0.81 ± 0.11
I5Q	-0.591 ± 0.2
I5N	-1.01 ± 0.21
I5P	-0.522 ± 0.14
I5W	-0.767 ± 0.2
I5L	-0.497 ± 0.099
I5H	-0.721 ± 0.13
I5G	-0.933 ± 0.15
I5D	-0.999 ± 0.2
I5T	-0.914 ± 0.14
I5F	-0.827 ± 0.16
I5C	-1.07 ± 0.18

Variant	abundance fitness
I5A	-0.778 ± 0.14
I5S	-0.823 ± 0.12
I5V	-0.842 ± 0.14
I5M	-0.746 ± 0.21
I5Y	-1.02 ± 0.19
H3F	-0.392 ± 0.19
H3M	-0.416 ± 0.14
H3C	-0.094 ± 0.13
H3Y	-0.16 ± 0.13
H3Q	0.045 ± 0.12
H3K	-0.56 ± 0.16
H3V	-0.629 ± 0.12
H3E	0.437 ± 0.14
H3I	-1.05 ± 0.28
H3P	-0.741 ± 0.16
H3R	-0.376 ± 0.082
H3S	-0.047 ± 0.09
H3W	-0.245 ± 0.12
H3T	-0.282 ± 0.12
H3D	0.235 ± 0.15
H3N	-0.266 ± 0.13
L6K	-0.918 ± 0.26
L6N	-0.804 ± 0.12
L6F	-0.73 ± 0.12

Variant	abundance fitness
L6Y	-0.735 ± 0.12
L6C	-0.333 ± 0.11
L6P	-0.695 ± 0.11
L6H	-0.76 ± 0.11
L6S	-0.824 ± 0.096
L6V	-0.231 ± 0.089
L6W	-1.07 ± 0.2
L6T	-0.75 ± 0.1
L6R	-0.805 ± 0.11
L6D	-0.907 ± 0.15
L6I	-0.046 ± 0.087
L6A	-0.79 ± 0.12
L6Q	-0.6 ± 0.17
L6M	-0.542 ± 0.17
I20E	-0.842 ± 0.31
I20A	-0.921 ± 0.1
I20N	-0.838 ± 0.15
I20Q	-0.874 ± 0.21
I20C	-0.686 ± 0.14
I20K	-0.878 ± 0.29
I20Y	-0.825 ± 0.17
I20T	-0.885 ± 0.12
I20F	-0.946 ± 0.13
I20S	-0.778 ± 0.092

Variant	abundance fitness
I20M	-0.612 ± 0.14
I20L	-0.622 ± 0.087
I20V	-0.276 ± 0.088
I20R	-0.722 ± 0.092
I20G	-0.791 ± 0.12
I20W	-0.633 ± 0.18
K21P	-0.855 ± 0.14
K21G	-0.656 ± 0.13
K21A	-0.01 ± 0.098
K21Y	-0.349 ± 0.14
K21V	-0.463 ± 0.1
K21F	-0.537 ± 0.15
K21D	-0.818 ± 0.19
K21T	-0.949 ± 0.17
K21Q	-0.106 ± 0.13
K21W	-0.201 ± 0.1
K21N	-0.561 ± 0.19
K21C	-0.424 ± 0.14
K21S	-0.406 ± 0.095
K21L	-0.204 ± 0.089
K21H	-0.008 ± 0.12
K21I	-0.581 ± 0.16
L19G	-0.604 ± 0.17
L19T	-0.775 ± 0.3

Variant	abundance fitness
L19A	-0.892 ± 0.23
L19W	-0.866 ± 0.27
L19Y	-0.282 ± 0.26
L19D	-0.71 ± 0.27
L19P	-0.74 ± 0.24
L19S	-0.703 ± 0.17
L19C	-0.924 ± 0.27
L19F	-0.518 ± 0.21
L19H	-0.814 ± 0.2
L19N	-0.262 ± 0.35
L19V	-0.814 ± 0.14
L19I	-0.772 ± 0.46
G14Q	-0.714 ± 0.16
G14K	-0.404 ± 0.21
G14P	-0.714 ± 0.11
G14T	-1.08 ± 0.14
G14I	-0.656 ± 0.12
G14D	-0.727 ± 0.11
G14A	-0.919 ± 0.13
G14E	-1.12 ± 0.28
G14N	-0.451 ± 0.084
G14W	-0.726 ± 0.18
G14S	-0.768 ± 0.087
G14R	-0.761 ± 0.1

Variant	abundance fitness
G14M	-1.05 ± 0.2
G14Y	-0.634 ± 0.093
G14C	-0.785 ± 0.12
G14H	-0.86 ± 0.1
G14F	-0.716 ± 0.11
H15L	-0.171 ± 0.089
H15V	-0.122 ± 0.088
H15A	-0.126 ± 0.087
H15C	-0.171 ± 0.14
H15R	0.057 ± 0.079
H15N	0.081 ± 0.12
H15E	-0.123 ± 0.13
H15F	-0.344 ± 0.17
H15S	-0.023 ± 0.089
H15K	0.205 ± 0.13
H15Y	-0.409 ± 0.11
H15D	-0.511 ± 0.14
H15I	0.029 ± 0.12
H15M	-0.134 ± 0.1
H15Q	-0.021 ± 0.11
H15W	-0.631 ± 0.15
H17V	-0.485 ± 0.085
H17Q	-0.098 ± 0.12
H17S	-0.155 ± 0.094

Variant	abundance fitness
H17P	-0.91 ± 0.25
H17D	-0.43 ± 0.12
H17F	-0.312 ± 0.2
H17Y	-0.04 ± 0.11
H17A	-0.252 ± 0.091
H17M	-0.034 ± 0.094
H17K	0.094 ± 0.11
H17E	-0.242 ± 0.093
H17W	-0.302 ± 0.11
H17R	-0.174 ± 0.077
H17I	-0.068 ± 0.13
H17L	-0.292 ± 0.084
H17C	0.031 ± 0.15
H17N	-0.052 ± 0.15
H17T	0.115 ± 0.11
H17G	-0.756 ± 0.094
K13I	-0.588 ± 0.1
K13C	-0.267 ± 0.093
K13H	-0.062 ± 0.09
K13L	-0.36 ± 0.078
K13P	-0.828 ± 0.11
K13G	-0.335 ± 0.089
K13M	-0.162 ± 0.12
K13S	-0.098 ± 0.073

Variant	abundance fitness
K13D	0.098 ± 0.1
K13V	-0.263 ± 0.088
K13R	-0.196 ± 0.084
K13W	-0.492 ± 0.16
K13A	-0.25 ± 0.085
K13T	-0.344 ± 0.088
K13N	-0.123 ± 0.093
K13E	-0.066 ± 0.13
K13Y	-0.214 ± 0.092
K13Q	-0.133 ± 0.11
K13F	-0.079 ± 0.088
V10E	-0.447 ± 0.12
V10I	-0.286 ± 0.097
V10H	-0.557 ± 0.14
V10P	-0.571 ± 0.12
V10Q	-0.377 ± 0.14
V10Y	0.115 ± 0.12
V10S	-0.47 ± 0.089
V10M	-0.495 ± 0.1
V10D	-0.682 ± 0.15
V10L	-0.332 ± 0.08
V10C	-0.562 ± 0.12
V10F	-0.207 ± 0.11
V10K	-0.144 ± 0.12

Variant	abundance fitness
V10G	-0.895 ± 0.11
V10R	-0.262 ± 0.085
V10T	-0.093 ± 0.1
V10N	-0.714 ± 0.14
V10W	-0.533 ± 0.13
N7Y	-0.449 ± 0.09
N7L	-0.438 ± 0.076
N7H	-0.26 ± 0.085
N7M	-0.529 ± 0.12
N7E	-0.317 ± 0.17
N7V	-0.724 ± 0.11
N7W	-0.586 ± 0.19
N7T	-0.162 ± 0.077
N7R	-0.263 ± 0.089
N7D	0.013 ± 0.11
N7C	-0.45 ± 0.11
N7A	-0.068 ± 0.097
N7Q	-0.101 ± 0.13
N7S	-0.112 ± 0.071
N7G	-0.356 ± 0.12
N7F	-0.568 ± 0.089
N7K	-0.07 ± 0.14
N7P	-0.884 ± 0.098
K12P	-0.083 ± 0.14

Variant	abundance fitness
K12R	-0.246 ± 0.12
K12W	-0.19 ± 0.15
K12H	0.01 ± 0.14
K12M	0 ± 0.13
K12N	-0.073 ± 0.12
K12L	-0.239 ± 0.099
K12V	-0.171 ± 0.1
K12G	-0.078 ± 0.091
K12D	-0.103 ± 0.15
K12F	-0.514 ± 0.13
K12S	-0.074 ± 0.092
K12Y	-0.184 ± 0.13
K12I	-0.136 ± 0.11
K12E	-0.158 ± 0.2
K12Q	-0.084 ± 0.25
K12A	-0.01 ± 0.1
D11A	-0.679 ± 0.12
D11W	-0.694 ± 0.22
D11N	-0.201 ± 0.085
D11Q	-0.928 ± 0.21
D11V	-0.951 ± 0.14
D11P	-0.913 ± 0.13
D11M	-1.09 ± 0.28
D11I	-0.812 ± 0.12

Variant	abundance fitness
D11K	-1.03 ± 0.36
D11C	-0.403 ± 0.12
D11G	-0.597 ± 0.15
D11T	-0.518 ± 0.097
D11E	-0.499 ± 0.22
D11R	-0.762 ± 0.12
D11S	-0.305 ± 0.084
D11L	-0.875 ± 0.1
D11Y	-0.792 ± 0.12
V16H	-0.288 ± 0.16
V16C	-0.22 ± 0.17
V16A	-0.516 ± 0.12
V16R	-0.309 ± 0.14
V16I	-0.059 ± 0.11
V16K	-0.088 ± 0.12
V16Q	-0.549 ± 0.16
V16Y	-0.016 ± 0.17
V16S	-0.745 ± 0.13
V16E	-0.545 ± 0.2
V16G	-0.757 ± 0.15
V16L	-0.11 ± 0.093
V16T	-0.059 ± 0.1
V16D	-0.611 ± 0.17
V16W	-0.715 ± 0.33

Variant	abundance fitness
V16F	-0.382 ± 0.16
V16P	-0.59 ± 0.16
V16M	-0.053 ± 0.11
Y18G	-0.798 ± 0.14
Y18M	-0.957 ± 0.19
Y18F	-0.43 ± 0.15
Y18L	-0.86 ± 0.11
Y18V	-0.753 ± 0.11
Y18C	-0.59 ± 0.18
Y18P	-0.833 ± 0.14
Y18D	-0.963 ± 0.17
Y18N	-0.754 ± 0.18
Y18Q	-0.962 ± 0.2
Y18R	-1.05 ± 0.14
Y18A	-0.688 ± 0.11
Y18S	-0.681 ± 0.12
Y18W	-0.787 ± 0.17
Y18H	-0.736 ± 0.2
Y18K	-0.838 ± 0.17
W22F	-0.825 ± 0.16
W22C	-0.793 ± 0.14
W22E	-0.823 ± 0.2
W22I	-0.797 ± 0.23
W22A	-0.889 ± 0.14

Variant	abundance fitness
W22G	-0.88 ± 0.16
W22K	-0.891 ± 0.23
W22H	-0.733 ± 0.18
H8P	-0.831 ± 0.17
H8C	-0.647 ± 0.15
H8I	-0.645 ± 0.12
H8A	-0.857 ± 0.14
H8R	-0.634 ± 0.1
H8E	-0.69 ± 0.17
H8F	-0.875 ± 0.18
H8Y	-0.803 ± 0.14
H8D	-0.92 ± 0.16
H8M	-0.847 ± 0.14
H8G	-0.832 ± 0.11
H8L	-0.806 ± 0.09
H8W	-0.863 ± 0.15
H8V	-0.918 ± 0.092
H8S	-0.713 ± 0.11
H8Q	-0.813 ± 0.2
H8N	-0.75 ± 0.17
H8K	-0.956 ± 0.24
H8T	-0.791 ± 0.21
